According to publication PMC9482650, “Quantitative fragmentomics allow affinity mapping of interactomes” (Nature Communications, 2022):
Where a chain is given by its changes, count along the chain named.

T1: FRMPD1, Q5SYB0
T1 sequence (Q5SYB0 52-145, limits assumed, looked up): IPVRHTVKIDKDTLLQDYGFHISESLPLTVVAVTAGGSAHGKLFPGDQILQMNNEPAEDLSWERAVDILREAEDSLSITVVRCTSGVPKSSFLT

T2: LIN7B, Q9HAP6
T2 sequence (Q9HAP6 88-185, limits assumed, looked up): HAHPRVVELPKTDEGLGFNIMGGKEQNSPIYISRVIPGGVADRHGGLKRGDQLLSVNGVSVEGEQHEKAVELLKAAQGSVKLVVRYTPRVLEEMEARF

T3: MPP6, Q9NZW5
T3 sequence (Q9NZW5 125-219, limits assumed, looked up): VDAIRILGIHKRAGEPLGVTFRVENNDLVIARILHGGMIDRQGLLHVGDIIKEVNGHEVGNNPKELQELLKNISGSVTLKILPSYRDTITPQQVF

T4: GRIP1_2, Q9Y3R0
T4 sequence (Q9Y3R0 145-248, limits assumed, looked up): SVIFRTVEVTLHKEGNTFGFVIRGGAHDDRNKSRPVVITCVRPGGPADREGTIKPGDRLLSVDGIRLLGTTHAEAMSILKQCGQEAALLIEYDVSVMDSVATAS

T5: APBA2_1, Q99767
T5 sequence (Q99767 563-664, limits assumed, looked up): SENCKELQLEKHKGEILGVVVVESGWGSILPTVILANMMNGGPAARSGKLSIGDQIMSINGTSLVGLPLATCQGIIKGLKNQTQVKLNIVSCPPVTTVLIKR

T6: DLG3_2, Q92796
T6 sequence (Q92796 221-321, limits assumed, looked up): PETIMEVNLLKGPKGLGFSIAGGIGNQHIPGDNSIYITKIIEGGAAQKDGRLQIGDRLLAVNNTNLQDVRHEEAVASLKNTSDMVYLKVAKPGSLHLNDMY

T7: PCLO, Q9Y6V0
T7 sequence (Q9Y6V0 4491-4600, limits assumed, looked up): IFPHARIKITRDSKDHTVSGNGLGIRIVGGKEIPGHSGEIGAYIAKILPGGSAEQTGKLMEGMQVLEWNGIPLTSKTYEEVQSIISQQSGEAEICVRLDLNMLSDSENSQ

T8: SNTG1, Q9NSN8
T8 sequence (Q9NSN8 52-150, limits assumed, looked up): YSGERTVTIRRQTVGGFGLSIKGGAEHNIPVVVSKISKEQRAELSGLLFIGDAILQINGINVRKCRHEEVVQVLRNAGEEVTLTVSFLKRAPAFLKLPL

T9: LIN7A, O14910
T9 sequence (O14910 103-200, limits assumed, looked up): T2 sequence (Q9HAP6 88-185, limits assumed, looked up) with A2S, I20V, V35I, D42E, Q65H, Q77K, G78D, R89K

T10: DVL3, Q92997
T10 sequence (Q92997 244-331, limits assumed, looked up): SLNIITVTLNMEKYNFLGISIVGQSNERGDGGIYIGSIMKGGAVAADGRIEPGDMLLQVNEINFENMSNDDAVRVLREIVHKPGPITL

T11: DLG3_1, Q92796
T11 sequence (Q92796 125-227, limits assumed, looked up): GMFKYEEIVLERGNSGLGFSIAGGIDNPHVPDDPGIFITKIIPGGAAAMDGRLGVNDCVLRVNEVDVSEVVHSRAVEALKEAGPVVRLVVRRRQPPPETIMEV

T12: PDZRN3_1, Q9UPQ7
T12 sequence (Q9UPQ7 244-349, limits assumed, looked up): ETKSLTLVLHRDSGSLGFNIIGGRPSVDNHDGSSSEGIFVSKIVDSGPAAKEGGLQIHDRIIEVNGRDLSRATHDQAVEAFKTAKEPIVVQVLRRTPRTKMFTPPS


molecular target: T1, FRMPD1, Q5SYB0; experiment: holdup assay; parameters: key: below the threshold = too weak to quantify, mostly under pKd 3.1 to 4; details: plain residues with an end cap or a label only (N-terminal biotin on a linker: ado-ado)

Binder | pKd
DFLSTFHIRI [CIB2, O75838] | below the threshold
TISFTQTSQF [SLC1A1, P43005] | below the threshold

molecular target: T2, LIN7B, Q9HAP6; experiment: holdup assay; parameters: key: below the threshold = too weak to quantify, mostly under pKd 3.1 to 4; details: plain residues with an end cap or a label only (N-terminal biotin on a linker: ado-ado)

Binder | pKd
DFLSTFHIRI [CIB2, O75838] | 3.67
TISFTQTSQF [SLC1A1, P43005] | below the threshold

molecular target: HTRA2, O43464; experiment: holdup assay; parameters: key: below the threshold = too weak to quantify, mostly under pKd 3.1 to 4; details: plain residues with an end cap or a label only (N-terminal biotin on a linker: ado-ado)
Sequence (O43464 355-458): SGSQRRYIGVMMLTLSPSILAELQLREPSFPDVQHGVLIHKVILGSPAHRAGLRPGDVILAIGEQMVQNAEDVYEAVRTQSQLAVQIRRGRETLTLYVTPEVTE

Binder | pKd
DFLSTFHIRI [CIB2, O75838] | 3.5
TISFTQTSQF [SLC1A1, P43005] | below the threshold

molecular target: T3, MPP6, Q9NZW5; experiment: holdup assay; parameters: key: below the threshold = too weak to quantify, mostly under pKd 3.1 to 4; details: plain residues with an end cap or a label only (N-terminal biotin on a linker: ado-ado)

Binder | pKd
DFLSTFHIRI [CIB2, O75838] | below the threshold
TISFTQTSQF [SLC1A1, P43005] | below the threshold

molecular target: T4, GRIP1_2, Q9Y3R0; experiment: holdup assay; parameters: key: below the threshold = too weak to quantify, mostly under pKd 3.1 to 4; details: plain residues with an end cap or a label only (N-terminal biotin on a linker: ado-ado)

Binder | pKd
DFLSTFHIRI [CIB2, O75838] | below the threshold
TISFTQTSQF [SLC1A1, P43005] | below the threshold

molecular target: LNX1_3, Q8TBB1; experiment: holdup assay; parameters: key: below the threshold = too weak to quantify, mostly under pKd 3.1 to 4; details: plain residues with an end cap or a label only (N-terminal biotin on a linker: ado-ado)
Sequence (Q8TBB1 500-596): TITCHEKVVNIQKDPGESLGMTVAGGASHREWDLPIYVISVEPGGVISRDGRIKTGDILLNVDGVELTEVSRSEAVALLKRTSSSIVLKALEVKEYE

Binder | pKd
DFLSTFHIRI [CIB2, O75838] | 4.28
TISFTQTSQF [SLC1A1, P43005] | below the threshold

molecular target: T5, APBA2_1, Q99767; experiment: holdup assay; parameters: key: below the threshold = too weak to quantify, mostly under pKd 3.1 to 4; details: plain residues with an end cap or a label only (N-terminal biotin on a linker: ado-ado)

Binder | pKd
DFLSTFHIRI [CIB2, O75838] | below the threshold
TISFTQTSQF [SLC1A1, P43005] | below the threshold

molecular target: TJP1_3, Q07157; experiment: holdup assay; parameters: key: below the threshold = too weak to quantify, mostly under pKd 3.1 to 4; details: plain residues with an end cap or a label only (N-terminal biotin on a linker: ado-ado)
Sequence (Q07157 416-512): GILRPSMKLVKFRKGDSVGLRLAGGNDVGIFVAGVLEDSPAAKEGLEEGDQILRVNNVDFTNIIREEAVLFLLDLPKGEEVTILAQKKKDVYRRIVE

Binder | pKd
DFLSTFHIRI [CIB2, O75838] | below the threshold
TISFTQTSQF [SLC1A1, P43005] | below the threshold

molecular target: T6, DLG3_2, Q92796; experiment: holdup assay; parameters: key: below the threshold = too weak to quantify, mostly under pKd 3.1 to 4; details: plain residues with an end cap or a label only (N-terminal biotin on a linker: ado-ado)

Binder | pKd
DFLSTFHIRI [CIB2, O75838] | 3.97
TISFTQTSQF [SLC1A1, P43005] | 4.08

molecular target: FRMPD2_2, Q68DX3; experiment: holdup assay; parameters: key: below the threshold = too weak to quantify, mostly under pKd 3.1 to 4; details: plain residues with an end cap or a label only (N-terminal biotin on a linker: ado-ado)
Sequence (Q68DX3 944-1038): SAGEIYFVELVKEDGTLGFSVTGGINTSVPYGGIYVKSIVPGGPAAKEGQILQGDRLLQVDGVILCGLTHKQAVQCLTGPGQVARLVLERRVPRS

Binder | pKd
DFLSTFHIRI [CIB2, O75838] | below the threshold
TISFTQTSQF [SLC1A1, P43005] | below the threshold

molecular target: T7, PCLO, Q9Y6V0; experiment: holdup assay; parameters: key: below the threshold = too weak to quantify, mostly under pKd 3.1 to 4; details: plain residues with an end cap or a label only (N-terminal biotin on a linker: ado-ado)

Binder | pKd
DFLSTFHIRI [CIB2, O75838] | below the threshold
TISFTQTSQF [SLC1A1, P43005] | below the threshold

molecular target: IL16_4, Q14005; experiment: holdup assay; parameters: key: below the threshold = too weak to quantify, mostly under pKd 3.1 to 4; details: plain residues with an end cap or a label only (N-terminal biotin on a linker: ado-ado)
Sequence (Q14005 1229-1329): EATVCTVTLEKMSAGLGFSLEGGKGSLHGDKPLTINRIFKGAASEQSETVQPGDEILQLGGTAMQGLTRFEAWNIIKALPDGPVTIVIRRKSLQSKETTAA

Binder | pKd
DFLSTFHIRI [CIB2, O75838] | below the threshold
TISFTQTSQF [SLC1A1, P43005] | below the threshold

molecular target: PDLIM1, O00151; experiment: holdup assay; parameters: key: below the threshold = too weak to quantify, mostly under pKd 3.1 to 4; details: plain residues with an end cap or a label only (N-terminal biotin on a linker: ado-ado)
Sequence (O00151 1-87): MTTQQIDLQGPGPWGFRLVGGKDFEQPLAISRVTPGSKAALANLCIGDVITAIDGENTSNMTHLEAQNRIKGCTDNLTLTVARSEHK

Binder | pKd
DFLSTFHIRI [CIB2, O75838] | below the threshold
TISFTQTSQF [SLC1A1, P43005] | below the threshold

molecular target: T8, SNTG1, Q9NSN8; experiment: holdup assay; parameters: key: below the threshold = too weak to quantify, mostly under pKd 3.1 to 4; details: plain residues with an end cap or a label only (N-terminal biotin on a linker: ado-ado)

Binder | pKd
DFLSTFHIRI [CIB2, O75838] | below the threshold
TISFTQTSQF [SLC1A1, P43005] | below the threshold

molecular target: LAP2, Q96RT1; experiment: holdup assay; parameters: key: below the threshold = too weak to quantify, mostly under pKd 3.1 to 4; details: plain residues with an end cap or a label only (N-terminal biotin on a linker: ado-ado)
Sequence (Q96RT1 other isoform, or with tags, fused parts or gaps): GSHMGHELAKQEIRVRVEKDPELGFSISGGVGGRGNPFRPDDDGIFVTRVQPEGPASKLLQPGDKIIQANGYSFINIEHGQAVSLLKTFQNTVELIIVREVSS

Binder | pKd
DFLSTFHIRI [CIB2, O75838] | below the threshold
TISFTQTSQF [SLC1A1, P43005] | below the threshold

molecular target: SCRIB_3, Q14160; experiment: holdup assay; parameters: key: below the threshold = too weak to quantify, mostly under pKd 3.1 to 4; details: plain residues with an end cap or a label only (N-terminal biotin on a linker: ado-ado)
Sequence (Q14160 999-1103): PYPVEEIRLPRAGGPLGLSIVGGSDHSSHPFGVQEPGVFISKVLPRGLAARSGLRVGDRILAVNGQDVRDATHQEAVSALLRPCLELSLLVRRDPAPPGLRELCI

Binder | pKd
DFLSTFHIRI [CIB2, O75838] | 3.56
TISFTQTSQF [SLC1A1, P43005] | 3.72

molecular target: HTRA1, Q92743; experiment: holdup assay; parameters: key: below the threshold = too weak to quantify, mostly under pKd 3.1 to 4; details: plain residues with an end cap or a label only (N-terminal biotin on a linker: ado-ado)
Sequence (Q92743 360-477): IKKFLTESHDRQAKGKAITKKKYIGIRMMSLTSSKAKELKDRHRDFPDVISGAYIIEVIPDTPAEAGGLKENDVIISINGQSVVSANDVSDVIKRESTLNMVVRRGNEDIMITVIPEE

Binder | pKd
DFLSTFHIRI [CIB2, O75838] | 4.15
TISFTQTSQF [SLC1A1, P43005] | below the threshold

molecular target: T9, LIN7A, O14910; experiment: holdup assay; parameters: key: below the threshold = too weak to quantify, mostly under pKd 3.1 to 4; details: plain residues with an end cap or a label only (N-terminal biotin on a linker: ado-ado)

Binder | pKd
DFLSTFHIRI [CIB2, O75838] | below the threshold
TISFTQTSQF [SLC1A1, P43005] | below the threshold

molecular target: GORASP2, Q9H8Y8; experiment: holdup assay; parameters: key: below the threshold = too weak to quantify, mostly under pKd 3.1 to 4; details: plain residues with an end cap or a label only (N-terminal biotin on a linker: ado-ado)

Binder | pKd
DFLSTFHIRI [CIB2, O75838] | 4.46
TISFTQTSQF [SLC1A1, P43005] | below the threshold

molecular target: ARHGEF12, Q9NZN5-2; experiment: holdup assay; parameters: key: below the threshold = too weak to quantify, mostly under pKd 3.1 to 4; details: plain residues with an end cap or a label only (N-terminal biotin on a linker: ado-ado)
Sequence (Q9NZN5 other isoform, or with tags, fused parts or gaps): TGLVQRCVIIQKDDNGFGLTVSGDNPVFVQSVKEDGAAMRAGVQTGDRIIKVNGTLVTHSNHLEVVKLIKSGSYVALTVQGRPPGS

Binder | pKd
DFLSTFHIRI [CIB2, O75838] | below the threshold
TISFTQTSQF [SLC1A1, P43005] | 3.79

molecular target: T10, DVL3, Q92997; experiment: holdup assay; parameters: key: below the threshold = too weak to quantify, mostly under pKd 3.1 to 4; details: plain residues with an end cap or a label only (N-terminal biotin on a linker: ado-ado)

Binder | pKd
DFLSTFHIRI [CIB2, O75838] | 3.59
TISFTQTSQF [SLC1A1, P43005] | below the threshold

molecular target: NHERF4_1, Q86UT5-2; experiment: holdup assay; parameters: key: below the threshold = too weak to quantify, mostly under pKd 3.1 to 4; details: plain residues with an end cap or a label only (N-terminal biotin on a linker: ado-ado)
Sequence (Q86UT5 other isoform, or with tags, fused parts or gaps): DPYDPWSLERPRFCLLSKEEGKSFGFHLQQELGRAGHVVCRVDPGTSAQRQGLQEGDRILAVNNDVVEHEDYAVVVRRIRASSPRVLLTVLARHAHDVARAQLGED

Binder | pKd
DFLSTFHIRI [CIB2, O75838] | below the threshold
TISFTQTSQF [SLC1A1, P43005] | 3.99

molecular target: GRID2IP_1, A4D2P6; experiment: holdup assay; parameters: key: below the threshold = too weak to quantify, mostly under pKd 3.1 to 4; details: plain residues with an end cap or a label only (N-terminal biotin on a linker: ado-ado)
Sequence (A4D2P6 1-87): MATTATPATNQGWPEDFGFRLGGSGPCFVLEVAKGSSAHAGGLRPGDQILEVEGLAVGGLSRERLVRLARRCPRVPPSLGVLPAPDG

Binder | pKd
DFLSTFHIRI [CIB2, O75838] | below the threshold
TISFTQTSQF [SLC1A1, P43005] | below the threshold

molecular target: T11, DLG3_1, Q92796; experiment: holdup assay; parameters: key: below the threshold = too weak to quantify, mostly under pKd 3.1 to 4; details: plain residues with an end cap or a label only (N-terminal biotin on a linker: ado-ado)

Binder | pKd
DFLSTFHIRI [CIB2, O75838] | below the threshold
TISFTQTSQF [SLC1A1, P43005] | below the threshold

molecular target: T12, PDZRN3_1, Q9UPQ7; experiment: holdup assay; parameters: key: below the threshold = too weak to quantify, mostly under pKd 3.1 to 4; details: plain residues with an end cap or a label only (N-terminal biotin on a linker: ado-ado)

Binder | pKd
DFLSTFHIRI [CIB2, O75838] | below the threshold
TISFTQTSQF [SLC1A1, P43005] | below the threshold

molecular target: Inadl_8, Q8NI35; experiment: holdup assay; parameters: key: below the threshold = too weak to quantify, mostly under pKd 3.1 to 4; details: plain residues with an end cap or a label only (N-terminal biotin on a linker: ado-ado)
Sequence (Q8NI35 1425-1530): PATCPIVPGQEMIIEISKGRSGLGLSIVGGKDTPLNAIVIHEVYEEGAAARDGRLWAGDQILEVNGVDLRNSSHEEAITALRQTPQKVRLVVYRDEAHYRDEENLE

Binder | pKd
DFLSTFHIRI [CIB2, O75838] | below the threshold
TISFTQTSQF [SLC1A1, P43005] | below the threshold
